In patent US8889615B2, “Methods for promoting epithelialization and healing of chronic wounds” (New York University, priority 2009, dated 2014):

System: Primary human keratinocytes
Assay: Keratinocyte migration, wound scratch assay
Format: cell-based
Conditions: 20 μmol/L LiCl or 25 ng/ml of EGF, 24 and 48 hours
Protocol: Primary human keratinocytes were grown to 80% confluency. Twenty-four hours before the experiment cells were transferred to basal KBM medium (Life Technologies, Inc., Grand Island, N.Y.). Before the scratch, cells were treated with 8 μg/ml mitomycin C (ICN, Irvine, Calif.) for 1 hour and washed with basal media. Scratches were performed as previously described (Lee, et al., J Mol. Biol., 345:1083-1097 (2005)). Cells were incubated with 20 μmol/L LiCl or 25 ng/ml of EGF for 24 and 48 hours, rephotographed, and cell migration was quantified as previously described (Lee, et al., J. Mol. Biol., 345:1083-1097 (2005); Zavadil. et al., EMBO J., 23:1155-1165 (2004)). Thirty measurements were taken for each experimental condition and distance coverage by cells moving into the scratch wound area was quantified. Three images were analyzed per condition, per time point, and averages and standard deviations were calculated.

B1: EGF: epidermal growth factor, promotes keratinocyte migration (protein, UniProt P01133 23-1207, looked up)
Pro-epidermal growth factor: PQHWSCPEGTLAGNGNSTCVGPAPFLIFSHGNSIFRIDTEGTNYEQLVVDAGVSVIMDFHYNEKRIYWVDLERQLLQRVFLNGSRQERVCNIEKNVSGMAINWINEEVIWSNQQEGIITVTDMKGNNSHILLSALKYPANVAVDPVERFIFWSSEVAGSLYRADLDGVGVKALLETSEKITAVSLDVLDKRLFWIQYNREGSNSLICSCDYDGGSVHISKHPTQHNLFAMSLFGDRIFYSTWKMKTIWIANKHTGKDMVRINLHSSFVPLGELKVVHPLAQPKAEDDTWEPEQKLCKLRKGNCSSTVCGQDLQSHLCMCAEGYALSRDRKYCEDVNECAFWNHGCTLGCKNTPGSYYCTCPVGFVLLPDGKRCHQLVSCPRNVSECSHDCVLTSEGPLCFCPEGSVLERDGKTCSGCSSPDNGGCSQLCVPLSPVSWECDCFPGYDLQLDEKSCAASGPQPFLLFANSQDIRHMHFDGTDYGTLLSQQMGMVYALDHDPVENKIYFAHTALKWIERANMDGSQRERLIEEGVDVPEGLAVDWIGRRFYWTDRGKSLIGRSDLNGKRSKIITKENISQPRGIAVHPMAKRLFWTDTGINPRIESSSLQGLGRLVIASSDLIWPSGITIDFLTDKLYWCDAKQSVIEMANLDGSKRRRLTQNDVGHPFAVAVFEDYVWFSDWAMPSVMRVNKRTGKDRVRLQGSMLKPSSLVVVHPLAKPGADPCLYQNGGCEHICKKRLGTAWCSCREGFMKASDGKTCLALDGHQLLAGGEVDLKNQVTPLDILSKTRVSEDNITESQHMLVAEIMVSDQDDCAPVGCSMYARCISEGEDATCQCLKGFAGDGKLCSDIDECEMGVPVCPPASSKCINTEGGYVCRCSEGYQGDGIHCLDIDECQLGEHSCGENASCTNTEGGYTCMCAGRLSEPGLICPDSTPPPHLREDDHHYSVRNSDSECPLSHDGYCLHDGVCMYIEALDKYACNCVVGYIGERCQYRDLKWWELRHAGHGQQQKVIVVAVCVVVLVMLLLLSLWGAHYYRTQKLLSKNPKNPYEESSRDVRSRRPADTEDGMSSCPQPWFVVIKEHQDLKNGGQPVAGEDGQAADGSMQPTSWRQEPQLCGMGTEQGCWIPVSSDKGSCPQVMERSFHMPSYGTQTLEGGVEKPHSLLSANPLWQQRALDPPHQMELTQ
modifications: Pro-epidermal growth factor
notes: epidermal growth factor, promotes keratinocyte migration
  keratinocyte migration: promoted
